The source of these data is US10000771B2, “Nuclear targeting sequences” (Yeda Research and Development Co. Ltd., priority 2007, dated 2018).

For assay [1], the system named is CHO cells. The assay can be described thus: Microscopy of SMAD3 and MH2 constructs (subcellular localization). To be noted: overexpressed in CHO cells, fluorescence microscopy. Format: cell-based. An excerpt:
FIGS. 11A-11D are photomicrographs illustrating that mutation of SPS prevents the nuclear translocation of full length SMAD3. CHO cells overexpressing either Flag-SMAD3 (SMAD3) or its AAA mutant (AAA-SMAD3) were fixed and stained both with anti Flag Ab and DAPI.
FIGS. 12A-12F are photomicrographs illustrating that mutants of the SPS domain modulate the subcellular translocation of the MH2 region of SMAD3. CHO cells overexpressing MH2 domain of SMAD3 (WT-MH2), or the AAA (AAA-MH2) and DPD mutant (MH2-DPD) were fixed and visualized under florescent microscope.
Immunofluorescence Microscopy. Cells were fixed (30 min in 3% paraformaldehyde in PBS or 10 min with ice-cold methanol), followed by 5-min permeabilization with 0.2% Triton X-100 in PBS (23° C.). The fixed cells were sequentially incubated with the appropriate Abs (45 min) followed by rhodamine-conjugated secondary Abs (45 min) and DAPI. Slides were visualized using a fluorescence microscope (Nikon, Japan) at 400× magnifications.
Therefore, it seems likely that the SPS of SMAD3 operated similarly to that of ERK2. To examine whether this SPS of SMAD3 is involved in nuclear translocation WT-Flag-SMAD3 and a Flag-SMAD3 in which the SPS domain was replaced with three Ala residues (AAA-SMAD3) were overexpressed in CHO cells and their localization examined.

Assay [2] deals with SPS domain. Briefly: SPS phosphorylation detected by anti pSPS Ab Western blot. Format: cell-based. To be noted: COS7 cells, stimulated with VOOH, TPA, EGF or TGFβ, immunoprecipitation and Western blot. How it is done:
FIGS. 4A-4I are autoradiographs characterizing SPS phosphorylation using an Ab to the phosphorylated SPS domain. FIG. 4A illustrates an elevation of pSPS detection upon stimulation. COS cells were transfected with WT-GFP-ERK2. Twenty-four hr after transfection, the cells were serum-starved for 16 hr and subsequently treated with the general stimulator VOOH (V, 100 μM Na3VO4 and 200 μM H2O2, 15 min), TPA (T, 250 nM, 15 min), EGF (E, 50 ng/ml for 15 min), or left untreated (NT). The GFP-ERK2 was immunoprecipitated with anti GFP Ab, extensively washed, and the IP was then subjected to Western blotting with anti phospho SPS-ERK (αphoSPS-ERK) and anti general ERK (αgen-ERK) Abs. FIG. 4B is a time course of SPS phosphorylation. COS7 cells overexpressing WT-GFP-ERK2 were serum starved followed by EGF stimulation for the indicated time points. The lysates were then subjected to Western blot analysis as in FIG. 4A. […] SPS phosphorylation was detected using the anti pSPS Abs, and this was compared to the amount of genral ERKs detected by αgERK. […] SPS-phosphorylation was detected using αpSPS and αgERK Abs. […] The phosphorylation (^32P-ERK2) of ERK and its mutants was detected by autoradiography. […]
FIG. 9B is an autoradiograph illustrating that stimulation elevates pSPS phosphorylation of 2GFP-SPS construct. […] The total amount of immunoprecipitated 2GFP-SPS was detected with αGFP Ab. […]
In general terms: A western blot detects proteins with antibodies after separation by electrophoresis.

B1: WT-Flag-SMAD3: full length FLAG-SMAD3 (protein)
chain: MSSILPFTPPIVKRLLGWKKGEQNGQEEKWCEKAVKSLVKKLKKTGQLDELEKAITTQNVNTKCITIPRSLDGRLQVSHRKGLPHVIYCRLWRWPDLHSHHELRAMELCEFAFNMKKDEVCVNPYHYQRVETPVLPPVLVPRHTEIPAEFPPLDDYSHSIPENTNFPAGIEPQSNIPETPPPGYLSEDGETSDHQMNHSMDAGSPNLSPNPMSPAHNNLDLQPVTYCEPAFWCSISYYELNQRVGETFHASQPSMTVDGFTDPSNSERFCLGLLSNVNRNAAVELTRRHIGRGVRLYYIGGEVFAECLSDSAIFVQSPNCNQRYGWHPATVCKIPPGCNLKIFNNQEFAALLAQSVNQGFEAVYQLTRMCTIRMSFVKGWGAEYRRQTVTSTPCWIELHLNGPLQWLDKVLTQMGSPSIRCSSVS
modifications: left off: small tags and cut ends
As to B1, the subcellular localization result in assay [1] is reported as “nuclear localization”. In addition, in assay [2], the “SPS phosphorylation upon stimulation (anti pSPS Ab recognition)” value is “phosphorylated on its SPS domain”.
